Reference: article PMC2917185 (Nature structural & molecular biology, 2010)
Changes are numbered by the printed parent chain. Numbers in names are those of the source. Where “and” joins values, the source holds several entries; their conditions need not be identical. Equal values may be shown once. Read-outs that look alike come from different tables or passages of the source.

Key:
[1] = target: LHCP (light-harvesting chlorophyll a/b binding protein), fluorescein-labeled (UniProt P07371 38-269); assay: fluorescence polarisation
[2] = target: LHCP (light-harvesting chlorophyll a/b binding protein), fluorescein-labeled (UniProt P07371 38-269); assay: fluorescence polarisation; remark: listed apart in the source

B1: cpSRP (chloroplast signal recognition particle, cpSRP43 with cpSRP54) (complex)
chain 1: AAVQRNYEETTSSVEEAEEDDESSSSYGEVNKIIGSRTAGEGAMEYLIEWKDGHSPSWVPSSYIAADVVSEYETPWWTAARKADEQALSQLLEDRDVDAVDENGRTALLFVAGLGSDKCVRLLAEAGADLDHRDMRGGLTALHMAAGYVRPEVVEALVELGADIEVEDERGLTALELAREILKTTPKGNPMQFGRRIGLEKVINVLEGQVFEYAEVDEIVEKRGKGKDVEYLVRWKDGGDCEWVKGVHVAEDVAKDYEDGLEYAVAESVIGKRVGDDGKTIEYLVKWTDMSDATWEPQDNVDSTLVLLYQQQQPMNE
chain 2: EMFGQLTGGLEAAWSKLKGEEVLTKDNIAEPMRDIRRALLEADVSLPVVRRFVQSVSDQAVGMGVIRGVKPDQQLVKIVHDELVKLMGGEVSELQFAKSGPTVILLAGLQGVGKTTVCAKLACYLKKQGKSCMLIAGDVYRPAAIDQLVILGEQVGVPVYTAGTDVKPADIAKQGLKEAKKNNVDVVIMDTAGRLQIDKGMMDELKDVKKFLNPTEVLLVVDAMTGQEAAALVTTFNVEIGITGAILTKLDGDSRGGAALSVKEVSGKPIKLVGRGERMEDLEPFYPDRMAGRILGMGDVLSFVEKATEVMRQEDAEDLQKKIMSAKFDFNDFLKQTRAVAKMGSMTRVLGMIPGMGKVSPAQIREAEKNLLVMEAMIEVMTPEERERPELLAESPERRKRIAKDSGKTEQQVSALVAQIFQMRVKMKNLMGVMEGGSIPALSGLEDALKAEQKAPPGTARRKRKADSRKKFVESASSKPGPRGFGSGN
Kd [1]: 76 nM and 128 nM

B2: cpSRP-Y204A (cpSRP assembled from cpSRP43-Y204A and cpSRP54) (complex)
chain 1: B1 chain 1 with Y148A
chain 2: B1 chain 2
Kd [1]: > 5000 nM

B3: cpSRP-R161A (cpSRP assembled from cpSRP43-R161A and cpSRP54) (complex)
chain 1: B1 chain 1 with R105A
chain 2: B1 chain 2
Kd [1]: 1200 nM

B4: cpSRP43 ΔCD2ΔCD3 (CD1–Ank4 fragment) (domain or fragment)
chain: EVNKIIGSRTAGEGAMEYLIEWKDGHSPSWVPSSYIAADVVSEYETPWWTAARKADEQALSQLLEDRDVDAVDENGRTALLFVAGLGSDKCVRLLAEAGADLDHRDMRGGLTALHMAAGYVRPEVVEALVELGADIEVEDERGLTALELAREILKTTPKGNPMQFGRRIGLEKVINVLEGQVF
Kd [2]: > 10000 nM
